Results on 3 molecules are retold here after patent publication US20210301003A1 (Eli Lilly, published 2021).

Test [1] has as its target β-amyloid peptide (1-42) conjugated to BSA (Aβ1-42-Cys-BSA conjugate) (bovine). Nature of the test: competitive ELISA on Aβ1-42-BSA against biotinylated Mu266 (0.3 µg/ml), second set of three experiments.
Test [2] has the same target. Nature of the test: competitive ELISA on Aβ1-42-BSA against biotinylated Mu266 (0.3 µg/ml), first set of three experiments.
Another test has as its target Aβ 1-40 peptide (human). In words: KinExA 3000 equilibrium analysis, 37 C, Fab with serially diluted human soluble Abeta (1-40).
Test [3] deals with T1, β-amyloid peptide (1-42) conjugated to BSA (Aβ1-42-Cys-BSA conjugate) (bovine, maleimide-activated; Cys43 coupled to maleimide-activated bovine serum albumin).
T1 construct: Coated on ELISA plates at 10 µg/mL; also called Aβ1-42-BSA conjugate; Aβ1-42-Cys43
Nature of the test: competitive ELISA on Aβ1-42-BSA against biotinylated Mu266 (0.3 µg/ml), second set of three experiments. How it is done:
(§1) The Aβ142-BSA conjugate was prepared by dissolving 7.5 mg of Aβ₁₋₄₂-Cys₄₃ (C-terminal cysteine Aβ₁₋₄₂, AnaSpec) in 500 μL of dimethylsulfoxide, and then immediately adding 1,500 μL of distilled water. Two (2) milligrams of maleimide-activated bovine serum albumin (Pierce) was dissolved in 200 μL of distilled water. The two solutions were combined, thoroughly mixed, and allowed to stand at room temperature for two (2) hours. A gel chromatography column was used to separate unreacted peptide from Aβ₁₋₄₂-Cys-BSA conjugate.
(§2) After washing the wells with phosphate buffered saline (PBS) containing 0.1% Tween 20 (Washing Buffer) using an ELISA plate washer, the wells were blocked by adding 300 μL of SuperBlock reagent (Pierce) per well. After 30 minutes of blocking, the wells were washed Washing Buffer and excess liquid was removed.
(§3) As a background control, 100 μl of ELISA Buffer was added. The ELISA plate was incubated at room temperature for 90 min. After washing the wells with Washing Buffer, 100 μl of 1 μg/ml HRP-conjugated streptavidin (Cat #21124, Pierce) was added to each well. […] Absorbance was read at 415 nm. The absorbances were plotted against the log of the competitor concentration, curves were fit to the data points (using Prism) and the IC50 was determined for each antibody using methods well-known in the art.

Test [4] concerns the target T1, β-amyloid peptide (1-42) conjugated to …. Nature of the test: competitive ELISA on Aβ1-42-BSA against biotinylated Mu266 (0.3 µg/ml), first set of three experiments. How it is done:
as §1, §2, §3

In the case of Mouse monoclonal antibody 266 (Mu266), the IC50 in test [1] came to 3.87 µg/mL; in test [2] it was 4.7 µg/mL.
Molecule “m266-Fab (Fab fragment of murine monoclonal antibody 266)” registered a Kd with Aβ 1-40 peptide (human) of 0.24 nM.

B1: humanized 266 antibody (Hu266) (antibody, human IgG1, kappa, V domains shown)
VH: EVQLVESGGGLVQPGGSLRLSCAASGFTFSRYSMSWVRQAPGKGLELVAQINSVGNSTYYPDTVKGRFTISRDNAKNTLYLQMNSLRAEDTAVYYCASGDYWGQGTLVTVSS
VL: DVVMTQSPLSLPVTLGQPASISCRSSQSLIYSDGNAYLHWFLQKPGQSPRLLIYKVSNRFSGVPDRFSGSGSGTDFTLKISRVEAEDVGVYYCSQSTHVPWTFGQGTKVEIKR
notes: Mature antibody expressed from pVk-Hu266 and pVg1-Hu266 in Sp2/0 cells; also called exemplified anti-Aβ antibody
In the case of B1, the IC50 in test [3] amounted to 4 µg/mL; in test [4], 7.5 µg/mL.
